From patent US20150080549A1 (Chugai, published 2015)
Starred links: 1 amine or outer side, 2 acyl side, 3 side chain; linkers in the order of their positions; H or OH if unused. Positions of bridges follow the written chain, without caps; N, C: chain ends. Non-standard residues stand in square brackets, D forms with d. γEtAbu = 4-(ethylamino)butanoic acid, CCN(CCCC(=O)[*:2])[*:1]; NMeAla(4-thiazolyl) = CN[C@@H](Cc1cscn1)C(=O)O; NMePhe(3-Cl) = CN[C@@H](Cc1cccc(Cl)c1)C(=O)O; Met(O2) = CS(=O)(=O)CC[C@H](N)C(=O)O; NMeF = CN[C@@H](Cc1ccccc1)C(=O)O; FlPu(urea) = not defined here; Phg = N[C@H](C(=O)O)c1ccccc1; NMeS = CN[C@@H](CO)C(=O)O; NMeA = CN[C@@H](C)C(=O)O; βAla = NCCC(=O)O; Sar = CNCC(=O)O

T1: biotinylated Interleukin-6 receptor (IL-6R) (human, UniProt P08887 20-344, limits assumed, biotinylated (method of BMC biotechnology, 2008, 8, 41 and Protein Science, 1999, 8, 921-929); site not stated)
T1 construct: also called human IL-6 receptor; hIL-6R
T1 sequence (looked up): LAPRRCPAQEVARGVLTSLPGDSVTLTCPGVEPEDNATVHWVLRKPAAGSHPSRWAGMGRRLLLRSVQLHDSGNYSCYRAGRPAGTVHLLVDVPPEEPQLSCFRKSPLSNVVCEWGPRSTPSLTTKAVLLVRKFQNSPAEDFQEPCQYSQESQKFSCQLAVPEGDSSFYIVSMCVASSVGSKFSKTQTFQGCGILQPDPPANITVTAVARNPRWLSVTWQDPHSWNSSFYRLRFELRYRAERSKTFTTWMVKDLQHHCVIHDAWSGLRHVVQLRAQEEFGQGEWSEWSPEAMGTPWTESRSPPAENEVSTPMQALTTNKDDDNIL

T2: biotinylated Recombinant Human TNFR1/Fc Chimera (SinoBiological, Catalog Number 10872-H03H) (human, UniProt P19438 22-211, biotinylated with EZ-Link NHS-PEG4-Biotin (Thermo scientific 21329); sites not stated)
T2 construct: Bought Fc chimera; also called tumor necrosis factor receptor 1; Fc part of the bought chimera not given
T2 sequence (looked up): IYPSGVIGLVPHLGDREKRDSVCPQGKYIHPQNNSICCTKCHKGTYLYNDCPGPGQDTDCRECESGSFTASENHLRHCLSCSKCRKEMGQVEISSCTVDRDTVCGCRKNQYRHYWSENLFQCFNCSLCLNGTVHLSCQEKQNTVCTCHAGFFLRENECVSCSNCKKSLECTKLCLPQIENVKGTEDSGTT

B1: Compound SP856 (peptide)
peptide: [γEtAbu]IVW[NMePhe(3-Cl)][Met(O2)]P[NMePhe(3-Cl)][dY][Met(O2)]D[NMeAla(4-thiazolyl)][NMeA]S-OH
modifications: lactam N-11
SMILES: CC[C@H](C)[C@@H]1NC(=O)CCCN(CC)C(=O)C[C@@H](C(=O)N(C)[C@@H](Cc2cscn2)C(=O)N(C)[C@@H](C)C(=O)N[C@@H](CO)C(=O)O)NC(=O)[C@H](CCS(C)(=O)=O)NC(=O)[C@@H](Cc2ccc(O)cc2)NC(=O)[C@H](Cc2cccc(Cl)c2)N(C)C(=O)[C@@H]2CCCN2C(=O)[C@H](CCS(C)(=O)=O)NC(=O)[C@H](Cc2cccc(Cl)c2)N(C)C(=O)[C@H](Cc2c[nH]c3ccccc23)NC(=O)[C@H](C(C)C)NC1=O
notes: Chemically synthesized, HPLC purified
B2: Compound SP855 (peptide)
peptide: AII[NMeAla(4-thiazolyl)]WP[NMePhe(3-Cl)][Met(O2)][dY][βAla]DP[NMePhe(3-Cl)]S-OH
modifications: lactam N-11
SMILES: CC[C@H](C)[C@@H]1NC(=O)[C@H](C)NC(=O)C[C@@H](C(=O)N2CCC[C@H]2C(=O)N(C)[C@@H](Cc2cccc(Cl)c2)C(=O)N[C@@H](CO)C(=O)O)NC(=O)CCNC(=O)[C@@H](Cc2ccc(O)cc2)NC(=O)[C@H](CCS(C)(=O)=O)NC(=O)[C@H](Cc2cccc(Cl)c2)N(C)C(=O)[C@@H]2CCCN2C(=O)[C@H](Cc2c[nH]c3ccccc23)NC(=O)[C@H](Cc2cscn2)N(C)C(=O)[C@H]([C@@H](C)CC)NC1=O
notes: as for B1
B3: Compound SP859 (peptide)
peptide: APVI[NMeF][Met(O2)]P[NMePhe(3-Cl)]V[Met(O2)]DP[Sar]S-{NH(CH2)2NMe2}
modifications: lactam N-11
notes: Made from Compound SP854 by amidation of the C-terminal carboxylic acid
B4: Compound SP854 (peptide)
peptide: APVI[NMeF][Met(O2)]P[NMePhe(3-Cl)]V[Met(O2)]DP[Sar]S-OH
modifications: lactam N-11
SMILES: CC[C@H](C)[C@@H]1NC(=O)[C@H](C(C)C)NC(=O)[C@@H]2CCCN2C(=O)[C@H](C)NC(=O)C[C@@H](C(=O)N2CCC[C@H]2C(=O)N(C)CC(=O)N[C@@H](CO)C(=O)O)NC(=O)[C@H](CCS(C)(=O)=O)NC(=O)[C@H](C(C)C)NC(=O)[C@H](Cc2cccc(Cl)c2)N(C)C(=O)[C@@H]2CCCN2C(=O)[C@H](CCS(C)(=O)=O)NC(=O)[C@H](Cc2ccccc2)N(C)C1=O
notes: as for B1
B5: SEQ ID NO: PE-6 (TNFR1 binder) peptide (peptide)
peptide: AP[Sar]VITV[NMeS][Phg]SD[NMeA][NMePhe(3-Cl)]SGSGSGS-{FlPu(urea)}
modifications: lactam N-11; reading uncertain
notes: Translated in ECL Translation Solution T, cyclized and desulfurized; not isolated; also called translation product of template DNA DME-6
B6: SEQ ID NO: PE-4 (TNFR1 binder) peptide (peptide)
peptide: A[dY]IW[Met(O2)]S[Met(O2)][NMePhe(3-Cl)]V[NMeF]DT[NMePhe(3-Cl)]SGSGSGS-{FlPu(urea)}
modifications: lactam N-11; reading uncertain
notes: Translated in ECL Translation Solution T, cyclized and desulfurized; not isolated; also called translation product of template DNA DME-4
B7: SEQ ID NO: PE-5 (TNFR1 binder) peptide (peptide)
peptide: AP[Sar]IIVS[NMeS][Phg][Phg]D[NMeAla(4-thiazolyl)]TSGSGSGS-{FlPu(urea)}
modifications: lactam N-11; reading uncertain
notes: Translated in ECL Translation Solution T, cyclized and desulfurized; not isolated; also called translation product of template DNA DME-5

Each binder was assayed against T1, biotinylated Interleukin-6 receptor … (assay: SPR, Biacore T200, 20 C; biotinylated IL-6R captured on sensor chip CAP, peptide as analyte; KD=koff/kon from curve fitting).
Experimental: An SPR experiment for analyzing the interaction between synthetic peptides and IL-6R was conducted using Biacore T200 (GE healthcare) at 20° C. Synthetic peptides were added to the immobilized IL-6R, and the interaction was evaluated.
CAP reagent was immobilized on a Biacore sensor chip, Series S sensor chip CAP (GE healthcare), according to the instructions, and biotinylated IL-6R was further immobilized.
The obtained sensorgrams were analyzed using T200 evaluation software (GE healthcare) or Scrubber2 (Biologic software). First, solvent correction for DMSO and double reference (correction by subtracting sensorgrams of flow cells where IL-6R was not immobilized and sensorgrams in the case where the buffer was added) were carried out. Second, binding rate constants (kₒₙ) and dissociation rate constants (koff) were calculated from curve fitting to the corrected sensorgrams, and KDs were determined by the relational expression KD=koff/kₒₙ.

Row | Kd | Binder
1 | 13 µM | B1
2 | 5.3 µM | B2
3 | 0.55 µM | B3
4 | 1.8 µM | B4

The binders below were run against T2, biotinylated Recombinant Human TNFR1/Fc … (assay: ECL immunoassay (MSD): biotinylated target on streptavidin plate, translated FlPu(urea)-labelled cyclic peptide (Translation Solution T), anti-fluorescein and SULFO-TAG anti-mouse antibody; no-template control 293).
Experimental: 0.5 μl of a 200 mM EDTA solution (pH 8.0, Nacalai, 14362-24) and 0.5 μl of a 100 mM TCEP solution (pH 6.6) were added to 5 μL of the translation mixture, and the mixture was incubated at 37° C. for 120 minutes to cause cyclization reaction. 11 μL of desulfurization buffer (15 mM cysteine, 36 mM TCEP) was added to the cyclization product, and the mixture was incubated at 42° C. for 1 minutes, after which 4 μL of 1 M VA-044 (Wako, CAS No. 27776-21-2) was added and the mixture was allowed to stand at 42° C. for 1 hour.
Immunoassay was carried out using the above peptide solution for ECL assay. 500 nM biotinylated target protein was added at 10 μL per well to MSD Streptavidin MULTI-ARRAY 384-well plate (Meso Scale Discovery, L25SB-1), and reaction was conducted at room temperature for 1 hour with shaking at 500 rpm to immobilize the target protein. 2% skim milk PBS was added at 50 μL per well, and blocking was carried out by allowing to stand at room temperature for 2 hours. The reaction solution was removed and the plate was washed with PBS containing 0.05% Tween 20 (PBST) three times, after which 10 μL of the peptide solution for ECL assay was added and the plate was shaken at room temperature for 50 minutes at 500 rpm. The reaction solution was removed and the plate was washed with PBST three times, after which 10 μL of IgG Fraction Monoclonal Mouse Anti-Fluorescein (Jackson ImmunoResearch, 200-002-037) diluted to 0.5 μg/mL with 2% skim milk PBS was added, and reaction was conducted at room temperature for 50 minutes with shaking at 500 rpm. […] The reaction solution was removed and the plate was washed with PBST three times, after which 35 μl, of 2× Read Buffer T (Meso Scale Discovery, R92TC-3) was added and measurement was carried out using SECTOR Imager 2400 (Meso Scale Discovery).

Row | Binder | ECL signal
5 | B5 | 3610
6 | B6 | 32000
7 | B7 | 3760
